This is an account of results in US20240116985A1 (published 2024).

Starred links: 1 amine or outer side, 2 acyl side, 3 side chain; linkers in the order of their positions; H or OH if unused. Positions of bridges follow the written chain, without caps; N, C: chain ends. Non-standard residues stand in square brackets, D forms with d. Primed or numbered codes have the meaning given here. B5(11) = 2,2-bis(4-pentenyl)glycine = 2-amino-2-(pent-4-en-1-yl)hept-6-enoic acid (stitching residue, bears both staples), C=CCCCC(CCCC=C)(N[*:1])C(=O)[*:2]; B5(16) = 2-amino-2-(pent-4-en-1-yl)hept-6-enoic acid = 2,2-bis(4-pentenyl)glycine (stitching residue), C=CCCCC(CCCC=C)(N[*:1])C(=O)[*:2]; B5(4) = 2,2-bis(4-pentenyl)glycine = 2-amino-2-(pent-4-en-1-yl)hept-6-enoic acid (stitching residue), C=CCCCC(CCCC=C)(N[*:1])C(=O)[*:2]; B5(5) = 2,2-bis(4-pentenyl)glycine, 2-amino-2-(pent-4-en-1-yl)hept-6-enoic acid (stitching residue), C=CCCCC(CCCC=C)(N[*:1])C(=O)[*:2]; SeN = (S)-5-(((allyloxy)carbonyl)(methyl)amino)-2-amino-2-methylpentanoic acid, C=CCOC(=O)N(C)CCC[C@](C)(N[*:1])C(=O)[*:2]; B5(9) = 2-amino-2-(pent-4-en-1-yl)hept-6-enoic acid (2,2-bis(4-pentenyl)glycine), C=CCCCC(CCCC=C)(N[*:1])C(=O)[*:2]; d(βAsp) = O=C(O)[C@@H](CC(=O)[*:2])N[*:1]; Phe(4-NH2) = Nc1ccc(C[C@H](N)C(=O)O)cc1; Phe(3-Me) = Cc1cccc(C[C@H](N)C(=O)O)c1; Bta = N[C@@H](Cc1csc2ccccc12)C(=O)O; αAllylPro = C=CC[C@@]1(C(=O)O)CCCN1; S8 = C=CCCCCCC[C@](C)(N)C(=O)O

Broadly, the EC50 is the midpoint of the concentration-response curve.

To fix the notation:
B1: I-208 (peptide)
peptide: Ac-[αAllylPro]DA[B5(4)]DEAA[Phe(3-Me)]V[S8]FWQ-NH2
modifications: staple 1-4, 4-11
notes: Stapled peptide composition
B2: I-207 (peptide)
peptide: Ac-[αAllylPro]DA[B5(4)]DEAA[Phe(3-Me)]V[S8]FWQ-NH2
modifications: staple 1-4, 4-11
notes: Stapled peptide composition
B3: I-190 (peptide)
peptide: Ac-[αAllylPro]DI[B5(5)]DDAAFQ[SeN]FWH-NH2
modifications: staple 1-4, 4-11; not fully specified; printed as Ac-PL3-Asp-Ile-B5-Asp-Asp-Ala-Ala-Phe-Gln-SeN-Phe-Trp-His-NH2
notes: Stapled peptide composition
B4: I-668 (peptide)
peptide: Ac-[αAllylPro][d(βAsp)]I[B5(9)]DEAAFQ[S8]F[Bta]Q-NH2
modifications: staple 1-4, 4-11
notes: Stapled peptide composition; earlier-eluting HPLC peak (staple isomer)
B5: I-645 (peptide)
peptide: Ac-[αAllylPro]DI[B5(9)]DEAAFQ[S8]F[Bta]V-NH2
modifications: staple 1-4, 4-11
notes: Stapled peptide composition
B6: I-649 (peptide)
peptide: Ac-[αAllylPro]DI[B5(9)]DEFAFQ[S8]F[Bta]Q-NH2
modifications: staple 1-4, 4-11
notes: as for B4
B7: I-648 (peptide)
peptide: Ac-[αAllylPro]DI[B5(9)]DELAFQ[S8]F[Bta]Q-NH2
modifications: staple 1-4, 4-11
notes: Stapled peptide composition; later-eluting HPLC peak (staple isomer)
B8: I-647 (peptide)
peptide: Ac-[αAllylPro]DI[B5(9)]DELAFQ[S8]F[Bta]Q-NH2
modifications: staple 1-4, 4-11
notes: as for B4
B9: I-651 (peptide)
peptide: Ac-[αAllylPro]DI[B5(16)]DESAFQ[S8]F[Bta]Q-NH2
modifications: staple 1-4, 4-11
notes: as for B4
B10: I-650 (peptide)
peptide: Ac-[αAllylPro]DI[B5(16)]DEFAFQ[S8]F[Bta]Q-NH2
modifications: staple 1-4, 4-11
notes: as for B7
B11: I-646 (peptide)
peptide: Ac-[αAllylPro]DI[B5(9)]DEAAFQ[S8]F[Bta]V-NH2
modifications: staple 1-4, 4-11
notes: as for B7
B12: I-323 (peptide)
peptide: Ac-[αAllylPro]DA[B5(11)]DDAA[Phe(4-NH2)]V[S8]FWQ-NH2
modifications: staple 1-4, 4-11; not fully specified; printed as Ac-PL3-Asp-Ala-B5-Asp-Asp-Ala-Ala-4AmPhe-Val-S8-Phe-Trp-Gln-NH2
notes: Ac-PL3-Asp-Ala-B5-Asp-Asp-Ala-Ala-4AmPhe-Val-S8-Phe-Trp-Gln-NH2; stapled peptide composition

One experiment deals with T1, full-length beta-Catenin (Uniprot ID P35222) (Homo sapiens (Human), UniProt P35222 1-781).
T1 construct: Used full-length in the FP and AlphaScreen assays; also called B-Catenin; bCat
T1 sequence: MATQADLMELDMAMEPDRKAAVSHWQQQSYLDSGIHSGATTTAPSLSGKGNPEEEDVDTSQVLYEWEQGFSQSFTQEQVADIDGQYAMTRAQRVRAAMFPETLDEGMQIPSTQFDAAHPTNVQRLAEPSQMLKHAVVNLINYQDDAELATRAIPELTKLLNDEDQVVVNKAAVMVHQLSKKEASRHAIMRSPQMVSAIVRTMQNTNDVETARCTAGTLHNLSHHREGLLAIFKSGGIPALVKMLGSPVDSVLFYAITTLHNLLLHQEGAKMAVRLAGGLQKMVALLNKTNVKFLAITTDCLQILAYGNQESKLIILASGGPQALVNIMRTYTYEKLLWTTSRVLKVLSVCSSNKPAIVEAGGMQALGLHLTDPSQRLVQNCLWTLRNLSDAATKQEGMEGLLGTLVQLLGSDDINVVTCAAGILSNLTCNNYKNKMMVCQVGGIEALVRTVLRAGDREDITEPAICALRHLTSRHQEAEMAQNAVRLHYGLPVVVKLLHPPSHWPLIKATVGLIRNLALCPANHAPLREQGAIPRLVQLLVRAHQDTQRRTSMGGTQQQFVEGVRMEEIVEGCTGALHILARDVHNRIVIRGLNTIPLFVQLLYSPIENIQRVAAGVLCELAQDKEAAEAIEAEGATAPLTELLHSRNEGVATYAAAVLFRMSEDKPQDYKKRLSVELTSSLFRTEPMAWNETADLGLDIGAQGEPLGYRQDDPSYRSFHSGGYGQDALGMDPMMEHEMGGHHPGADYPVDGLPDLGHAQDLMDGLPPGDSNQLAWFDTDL
In words: AlphaScreen (nickel chelate) competition; full-length beta-catenin + biotin-TCF4(10-53) probe as competitor; peptide titrated. The procedure: Equal volume of the titrated peptide was added to the plate and incubated for 15 minutes at 20° C. Then 4 uL of donor and 4 uL acceptor beads at 10 ug/mL were added to the plate, for a 16 uL reaction pool and protected from light for 60 minutes at 20° C. prior to read. Reads were performed on a CLARIOstar plate reader (BMG Labtech) in duplicate, and data were fitted to a 1:1 binding model with hill slope using an in-house script. All provided concentrations are final concentrations.
With B1, the 50% effective concentration (EC50) worked out at 143 nM. On to B2, for which the EC50 stood at 143 nM. Still for that read-out and setting: the value for B3 was 94 nM.

The next experiment deals with T2, full-length beta-Catenin (Uniprot ID P35222) (Homo sapiens (Human), UniProt P35222 2-781).
T2 construct: 'mature' is the nearest allowed form; also called bCat; B-Catenin
T2 sequence: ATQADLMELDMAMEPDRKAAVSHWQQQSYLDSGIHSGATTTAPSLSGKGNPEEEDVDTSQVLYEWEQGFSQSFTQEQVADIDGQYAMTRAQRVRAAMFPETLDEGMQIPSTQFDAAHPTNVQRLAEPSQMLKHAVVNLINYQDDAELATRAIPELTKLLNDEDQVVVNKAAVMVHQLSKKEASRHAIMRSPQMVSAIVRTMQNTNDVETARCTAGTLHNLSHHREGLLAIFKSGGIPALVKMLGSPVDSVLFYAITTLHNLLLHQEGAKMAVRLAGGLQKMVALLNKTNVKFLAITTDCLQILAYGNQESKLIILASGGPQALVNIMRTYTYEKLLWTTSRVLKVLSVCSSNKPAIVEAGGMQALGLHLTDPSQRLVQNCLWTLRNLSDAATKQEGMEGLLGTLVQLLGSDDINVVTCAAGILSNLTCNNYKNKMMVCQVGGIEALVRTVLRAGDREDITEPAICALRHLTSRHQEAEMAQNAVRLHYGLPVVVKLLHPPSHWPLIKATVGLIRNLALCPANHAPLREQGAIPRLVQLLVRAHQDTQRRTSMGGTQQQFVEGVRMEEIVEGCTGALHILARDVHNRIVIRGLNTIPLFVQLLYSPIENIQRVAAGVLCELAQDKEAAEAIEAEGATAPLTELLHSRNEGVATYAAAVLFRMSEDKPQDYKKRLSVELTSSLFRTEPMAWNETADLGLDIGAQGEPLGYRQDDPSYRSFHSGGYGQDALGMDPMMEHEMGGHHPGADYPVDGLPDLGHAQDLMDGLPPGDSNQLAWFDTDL
The experiment can be described thus: fluorescence polarization competition, full-length beta-catenin with 5FAM-TCF4(10-53) probe as competitor. The procedure: (§1) The plate was incubated protected from light for 60 minutes at 20° C. prior to read. Reads were performed on a CLARIOstar plate reader (BMG Labtech) in duplicate, and data were fitted to a 1:1 binding model with hill slope using an in-house script. All provided concentrations are final concentrations.
A general note: In fluorescence polarisation assays a small probe gives low polarisation when free and higher when bound to something large.
For the molecule B4, the EC50 came out at 675 nM.

With B5, the 50% effective concentration (EC50) was 395 nM.

For B6, the response was half-maximal at 209 nM (EC50). The same measure, in the same setting: the value for B7 was 233 nM. The same measure, in the same setting: the value for B8 was 445 nM; that for B9 was 186 nM. Same read-out and setting: the value for B10 was 137 nM; that for B11 was 461 nM.

The next experiment concerns the target T1, full-length beta-Catenin (Uniprot ID …). In words: fluorescence polarization competition; full-length beta-catenin + 5FAM-TCF4(10-53) probe as competitor; peptide titrated. Here is the method:
as §1
On to B1, for which the EC50 was found to be 1740 nM. Consider B2, for which the EC50 was determined as 1740 nM. The same measure, in the same setting: the value for B3 was 696 nM.

A further experiment concerns the target T3, full-length beta-Catenin (Uniprot ID P35222) (Homo sapiens (Human), UniProt P35222 1-781).
T3 construct: the AlphaScreen used a Histidine (Nickel Chelate) detection kit, so a His tag is likely but not described; also called B-Catenin; bCat
T3 sequence: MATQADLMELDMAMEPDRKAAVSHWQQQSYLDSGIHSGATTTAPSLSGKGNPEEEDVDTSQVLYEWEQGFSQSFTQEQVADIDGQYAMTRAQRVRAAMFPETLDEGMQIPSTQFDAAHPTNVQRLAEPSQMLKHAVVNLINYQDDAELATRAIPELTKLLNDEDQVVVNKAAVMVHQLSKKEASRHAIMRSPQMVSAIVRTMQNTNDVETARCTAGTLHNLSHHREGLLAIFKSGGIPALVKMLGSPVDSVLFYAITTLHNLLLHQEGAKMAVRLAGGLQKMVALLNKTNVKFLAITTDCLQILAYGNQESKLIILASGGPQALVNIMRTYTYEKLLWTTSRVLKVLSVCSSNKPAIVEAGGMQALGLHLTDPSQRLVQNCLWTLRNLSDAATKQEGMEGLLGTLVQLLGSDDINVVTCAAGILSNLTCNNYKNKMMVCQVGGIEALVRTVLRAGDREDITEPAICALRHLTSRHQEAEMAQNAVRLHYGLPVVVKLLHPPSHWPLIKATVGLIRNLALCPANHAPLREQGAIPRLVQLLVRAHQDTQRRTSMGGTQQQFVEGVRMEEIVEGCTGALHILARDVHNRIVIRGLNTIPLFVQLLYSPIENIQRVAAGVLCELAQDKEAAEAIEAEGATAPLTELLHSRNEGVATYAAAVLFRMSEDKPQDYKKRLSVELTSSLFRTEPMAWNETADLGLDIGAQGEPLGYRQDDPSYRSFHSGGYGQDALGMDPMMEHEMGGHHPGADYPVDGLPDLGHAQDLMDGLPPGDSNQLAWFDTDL
In words: FP competition vs 5FAM-TCF4(10-53) probe on full-length beta-catenin. Here is the method:
as §1
In the case of B12, the EC50 turned out to be 3470 nM.
